Source: the supplement of paper PMC7125110
± gives the standard error. For some of these results: Fewer inactive variants are shown than the library holds.

B1: glmS ribozyme (parent)
chain: AUAAAAGCGCCAGAACUACAGAAAUGUAGUUGACGAGGAGGAGGUUUAUCGAAUUUUCGGCGGAUGCCUCCAAA

Columns and labels:
Conditions in all cases: with glucosamine-6-phosphate
glucosamine-6-phosphate [1] = variants of: B1; assay: kcat; higher = faster cleavage; RNA array
Outline: (§1)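 A hybridised Cy3 probe tracked barcoded ribozyme variants, transcribed in situ by E. coli RNA polymerase on sequenced MiSeq chips, at 37 °C. The variants received 40 μM to 10 mM glucosamine-6-phosphate in HEPES/KCl/Mg(OAc)2 buffer. kobs came from decay fits and kcat and KM from weighted Michaelis–Menten fits.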

glucosamine-6-phosphate [2] = variants of: B1; assay: self-cleavage kobs at 40 uM GlcN6P; higher = faster cleavage; RNA array
Outline: as §1

glucosamine-6-phosphate [3] = variants of: B1; assay: self-cleavage kobs at 160 uM GlcN6P; higher = faster cleavage; RNA array
Outline: as §1

glucosamine-6-phosphate [4] = variants of: B1; assay: self-cleavage kobs at 640 uM GlcN6P; higher = faster cleavage; RNA array
Outline: as §1

glucosamine-6-phosphate [5] = variants of: B1; assay: self-cleavage kobs at 10000 uM GlcN6P; higher = faster cleavage; RNA array
Outline: as §1

glucosamine-6-phosphate [6] = variants of: B1; assay: self-cleavage kobs at 2500 uM GlcN6P; higher = faster cleavage; RNA array
Outline: as §1

glucosamine-6-phosphate [7] = variants of: B1; assay: KM; higher = weaker cofactor use; RNA array
Outline: as §1

| Variant | kcat (glucosamine-6-phosphate [1]) | self-cleavage kobs at 40 uM GlcN6P (glucosamine-6-phosphate [2]) | self-cleavage kobs at 160 uM GlcN6P (glucosamine-6-phosphate [3]) | self-cleavage kobs at 640 uM GlcN6P (glucosamine-6-phosphate [4]) | self-cleavage kobs at 10000 uM GlcN6P (glucosamine-6-phosphate [5]) | self-cleavage kobs at 2500 uM GlcN6P (glucosamine-6-phosphate [6]) | KM (glucosamine-6-phosphate [7]) |
| --- | --- | --- | --- | --- | --- | --- | --- |
| A33G A36C | 1.58e-05 ± 7.1e-06 s⁻¹ | < 1e-05 s⁻¹ | < 1e-05 s⁻¹ | < 1e-05 s⁻¹ | < 1e-05 s⁻¹ |  |  |
| U30G U45C | 0.000451 ± 9.8e-05 s⁻¹ |  |  | 0.000201 ± 8.3e-05 s⁻¹ | 0.000435 ± 9.4e-05 s⁻¹ | 0.00024 ± 7.8e-05 s⁻¹ |  |
| U31C G41A | 9.11e-05 ± 9.7e-06 s⁻¹ |  |  | 6.76e-05 ± 1.5e-05 s⁻¹ | 8.13e-05 ± 1.2e-05 s⁻¹ | 9.23e-05 ± 1.6e-05 s⁻¹ |  |
| G32U A33U | < 1e-05 s⁻¹ | < 1e-05 s⁻¹ | < 1e-05 s⁻¹ |  |  | < 1e-05 s⁻¹ |  |
| U31A G41U | 0.000384 ± 3.8e-05 s⁻¹ | 2.67e-05 ± 1.2e-05 s⁻¹ | 0.000103 ± 2e-05 s⁻¹ | 0.000289 ± 6.2e-05 s⁻¹ | 0.000344 ± 6e-05 s⁻¹ | 0.00034 ± 8.7e-05 s⁻¹ | 0.43 ± 0.089 mM |
| A33C C58U | < 1e-05 s⁻¹ |  | < 1e-05 s⁻¹ |  | < 1e-05 s⁻¹ |  |  |
| U31G U56G C71A | 0.000443 ± 5.1e-05 s⁻¹ |  |  |  | 0.00035 ± 9e-05 s⁻¹ | 0.000191 ± 4.5e-05 s⁻¹ | 3.05 ± 0.74 mM |
| G32C U56G | 5.69e-05 ± 1.6e-06 s⁻¹ | < 1e-05 s⁻¹ |  | 2.63e-05 ± 1.3e-05 s⁻¹ | 5.27e-05 ± 7.2e-06 s⁻¹ | 4.76e-05 ± 1.1e-05 s⁻¹ | 0.663 ± 0.11 mM |
| G32A | 0.00528 ± 0.00074 s⁻¹ | 5.63e-05 ± 1.2e-06 s⁻¹ | 0.000185 ± 5.1e-06 s⁻¹ | 0.00064 ± 1.1e-05 s⁻¹ | 0.00372 ± 7.6e-05 s⁻¹ | 0.00219 ± 7.7e-05 s⁻¹ | 4.25 ± 0.75 mM |
| G32C | 0.000139 ± 1.7e-06 s⁻¹ |  |  | 2.26e-05 ± 1.4e-06 s⁻¹ | 0.000103 ± 1.4e-06 s⁻¹ | 5.77e-05 ± 1.3e-06 s⁻¹ | 3.46 ± 0.11 mM |
| G32U | 0.00158 ± 5.1e-05 s⁻¹ | 1.52e-05 ± 1.4e-06 s⁻¹ | 4.88e-05 ± 1.7e-06 s⁻¹ | 0.000173 ± 2.7e-06 s⁻¹ | 0.00104 ± 1.4e-05 s⁻¹ | 0.000508 ± 1e-05 s⁻¹ | 5.15 ± 0.24 mM |
| G32U A64U | < 1e-05 s⁻¹ |  | < 1e-05 s⁻¹ | < 1e-05 s⁻¹ |  |  |  |
| G32U C67G | 0.000119 ± 1.3e-05 s⁻¹ |  |  | 4.87e-05 ± 1.6e-05 s⁻¹ | 0.000107 ± 1.2e-05 s⁻¹ | 6.69e-05 ± 1.2e-05 s⁻¹ | 1.52 ± 0.57 mM |
| U31A U56C | 0.00331 ± 0.0008 s⁻¹ | 6.48e-05 ± 1.3e-05 s⁻¹ | 0.000186 ± 4.2e-05 s⁻¹ | 0.00066 ± 0.00012 s⁻¹ | 0.00299 ± 0.00037 s⁻¹ | 0.00115 ± 0.00025 s⁻¹ | 2.63 ± 0.99 mM |
| G32A A42U C70A | < 1e-05 s⁻¹ | < 1e-05 s⁻¹ | < 1e-05 s⁻¹ | < 1e-05 s⁻¹ |  |  |  |
| U31C C58G | 7.48e-05 ± 2.5e-05 s⁻¹ | < 1e-05 s⁻¹ |  | 2.98e-05 ± 1.3e-05 s⁻¹ | 6.27e-05 ± 1.2e-05 s⁻¹ | 2.91e-05 ± 1.1e-05 s⁻¹ |  |

| Variant | kcat (glucosamine-6-phosphate [1]) | self-cleavage kobs at 40 uM GlcN6P (glucosamine-6-phosphate [2]) | self-cleavage kobs at 160 uM GlcN6P (glucosamine-6-phosphate [3]) | self-cleavage kobs at 640 uM GlcN6P (glucosamine-6-phosphate [4]) | self-cleavage kobs at 10000 uM GlcN6P (glucosamine-6-phosphate [5]) | self-cleavage kobs at 2500 uM GlcN6P (glucosamine-6-phosphate [6]) | KM (glucosamine-6-phosphate [7]) |
| --- | --- | --- | --- | --- | --- | --- | --- |
| A33C C50A | < 1e-05 s⁻¹ |  |  |  |  |  |  |
| U31G U45G | 0.00239 ± 0.00077 s⁻¹ |  |  | 0.000405 ± 0.0001 s⁻¹ | 0.00164 ± 0.00042 s⁻¹ | 0.00155 ± 0.00034 s⁻¹ |  |
| U31C U45C | 0.0005 ± 0.0001 s⁻¹ |  |  | 5.17e-05 ± 1.1e-05 s⁻¹ | 0.000327 ± 4.5e-05 s⁻¹ | 0.000213 ± 3.5e-05 s⁻¹ | 4.69 ± 1.6 mM |
| U31C A52G | 0.000531 ± 5.8e-05 s⁻¹ |  | 2.13e-05 ± 8.7e-06 s⁻¹ | 6.14e-05 ± 7.4e-06 s⁻¹ | 0.000358 ± 3.4e-05 s⁻¹ | 0.000196 ± 2.2e-05 s⁻¹ | 4.64 ± 0.81 mM |
| U31C U47C | 0.000503 ± 6.2e-05 s⁻¹ |  |  | 0.000111 ± 2e-05 s⁻¹ | 0.00042 ± 0.00011 s⁻¹ | 0.000269 ± 5.7e-05 s⁻¹ | 2.16 ± 0.43 mM |
| G32A C70A | 7.22e-05 ± 1.4e-05 s⁻¹ |  |  | 8.06e-05 ± 1.2e-05 s⁻¹ | 5.13e-05 ± 8.6e-06 s⁻¹ | 8.73e-05 ± 8.9e-06 s⁻¹ |  |
| U31A A53C | 0.00557 ± 0.0019 s⁻¹ | 4.92e-05 ± 9.4e-06 s⁻¹ | 0.000229 ± 3.4e-05 s⁻¹ | 0.000507 ± 6.9e-05 s⁻¹ | 0.00393 ± 0.00053 s⁻¹ | 0.00162 ± 0.00025 s⁻¹ | 5.3 ± 2.3 mM |
| U31G A48C | 0.000112 ± 1.1e-05 s⁻¹ |  |  |  | 8.83e-05 ± 1.7e-05 s⁻¹ | 5.79e-05 ± 1.5e-05 s⁻¹ | 2.55 ± 0.67 mM |
| G32A G66U | 0.000161 ± 4.6e-05 s⁻¹ |  |  | 4.96e-05 ± 1.7e-05 s⁻¹ | 0.000118 ± 1.6e-05 s⁻¹ | 5.52e-05 ± 1.1e-05 s⁻¹ |  |
| G32A G66A | 0.00312 ± 0.0006 s⁻¹ |  |  | 0.000269 ± 6.9e-05 s⁻¹ | 0.0019 ± 0.00044 s⁻¹ | 0.000911 ± 0.00018 s⁻¹ | 6.29 ± 1.7 mM |
| G32U U45G | 0.000699 ± 0.00027 s⁻¹ |  |  |  | 0.000203 ± 2.1e-05 s⁻¹ | 6.97e-05 ± 1.1e-05 s⁻¹ |  |
| G32U A52G | 8.92e-05 ± 4.7e-06 s⁻¹ |  |  |  | 6.6e-05 ± 5.2e-06 s⁻¹ | 3.86e-05 ± 7.8e-06 s⁻¹ | 3.49 ± 0.57 mM |
| G32U G63A | < 1e-05 s⁻¹ |  |  | < 1e-05 s⁻¹ | < 1e-05 s⁻¹ | < 1e-05 s⁻¹ |  |
| U31G G44U | 0.000237 ± 6.3e-05 s⁻¹ |  |  |  | 0.000129 ± 3e-05 s⁻¹ | 4.98e-05 ± 1.3e-05 s⁻¹ | 8.74 ± 3.6 mM |
| G32A G37A | 0.00051 ± 0.00011 s⁻¹ |  |  |  | 0.000143 ± 1.8e-05 s⁻¹ | 4.62e-05 ± 1e-05 s⁻¹ |  |
| U30G G37C | 1.26e-05 ± 3.7e-06 s⁻¹ | < 1e-05 s⁻¹ |  |  |  |  |  |
